Usually Kd stands for the equilibrium constant for the complex coming apart. Low values mean tighter binding, high ones weaker binding. In general, koff refers to the rate constant with which the complex falls apart. A lower koff goes with slow dissociation. A word on the kon: it is the rate constant with which the complex forms. A low value points to slow association.

The assay concerns the target T1, 全长CD271蛋白抗原 (human CD271, full-length protein antigen) (human, UniProt P08138 29-250, limits assumed).
T1 construct: Printed only as full-length CD271 protein; also called CD271全长蛋白; 全长抗原CD271
T1 sequence (looked up): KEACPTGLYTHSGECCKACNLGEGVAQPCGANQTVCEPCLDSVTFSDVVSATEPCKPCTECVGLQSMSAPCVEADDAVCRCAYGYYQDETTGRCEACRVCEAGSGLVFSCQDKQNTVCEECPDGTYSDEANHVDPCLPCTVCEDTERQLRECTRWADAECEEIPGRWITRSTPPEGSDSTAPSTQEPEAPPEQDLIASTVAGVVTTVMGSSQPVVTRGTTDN
Briefly: BLI (ForteBio), full-length CD271 immobilised on ProA sensor, antibody at 30-130 nM.

B1: 抗人CD271单克隆抗体 CD271T-2 (小鼠腹水纯化抗体, 杂交瘤细胞株CD271T-2, CGMCC 21494) (antibody, V domains shown)
VH: QVTLKESGPGILKPSQTLSLTCSFSGFSLSTSGMGVGWIRQPSGKGLEWLAHIWWDDDKYYNPSLKSQLTISKDTSRNQVFLKITSVDTAGTATYYCARRDYGNYYAMDYWGQGTSVTVS
VL: DIVLTQSPASLAVSLGQRATISCKASQSVDYDGDSYMNWYQQKPGQPPKLLIYAASNLESGIPARFSGSGSGTDFTLNIHPVEEEDAATYYCQQSNEDPFTFGSGTKLEIK
notes: It was purified from mouse ascites on MabSelect SuRe; also called CD271T-2腹水纯化抗体; 抗人CD271腹水抗体
B1 yielded a dissociation constant Kd of 3.37 nM, a koff of 0.000225 s⁻¹ and a kon of 66900 M⁻¹ s⁻¹.
